The record followed here is patent US20140271603.

Data set [1] addresses purified human plasma factor H (batch LFB), P08603.
In data set [2] the target is T1, recombinant human factor H, Y402 variant, produced in the HEK 293F cell line.
T1 chain: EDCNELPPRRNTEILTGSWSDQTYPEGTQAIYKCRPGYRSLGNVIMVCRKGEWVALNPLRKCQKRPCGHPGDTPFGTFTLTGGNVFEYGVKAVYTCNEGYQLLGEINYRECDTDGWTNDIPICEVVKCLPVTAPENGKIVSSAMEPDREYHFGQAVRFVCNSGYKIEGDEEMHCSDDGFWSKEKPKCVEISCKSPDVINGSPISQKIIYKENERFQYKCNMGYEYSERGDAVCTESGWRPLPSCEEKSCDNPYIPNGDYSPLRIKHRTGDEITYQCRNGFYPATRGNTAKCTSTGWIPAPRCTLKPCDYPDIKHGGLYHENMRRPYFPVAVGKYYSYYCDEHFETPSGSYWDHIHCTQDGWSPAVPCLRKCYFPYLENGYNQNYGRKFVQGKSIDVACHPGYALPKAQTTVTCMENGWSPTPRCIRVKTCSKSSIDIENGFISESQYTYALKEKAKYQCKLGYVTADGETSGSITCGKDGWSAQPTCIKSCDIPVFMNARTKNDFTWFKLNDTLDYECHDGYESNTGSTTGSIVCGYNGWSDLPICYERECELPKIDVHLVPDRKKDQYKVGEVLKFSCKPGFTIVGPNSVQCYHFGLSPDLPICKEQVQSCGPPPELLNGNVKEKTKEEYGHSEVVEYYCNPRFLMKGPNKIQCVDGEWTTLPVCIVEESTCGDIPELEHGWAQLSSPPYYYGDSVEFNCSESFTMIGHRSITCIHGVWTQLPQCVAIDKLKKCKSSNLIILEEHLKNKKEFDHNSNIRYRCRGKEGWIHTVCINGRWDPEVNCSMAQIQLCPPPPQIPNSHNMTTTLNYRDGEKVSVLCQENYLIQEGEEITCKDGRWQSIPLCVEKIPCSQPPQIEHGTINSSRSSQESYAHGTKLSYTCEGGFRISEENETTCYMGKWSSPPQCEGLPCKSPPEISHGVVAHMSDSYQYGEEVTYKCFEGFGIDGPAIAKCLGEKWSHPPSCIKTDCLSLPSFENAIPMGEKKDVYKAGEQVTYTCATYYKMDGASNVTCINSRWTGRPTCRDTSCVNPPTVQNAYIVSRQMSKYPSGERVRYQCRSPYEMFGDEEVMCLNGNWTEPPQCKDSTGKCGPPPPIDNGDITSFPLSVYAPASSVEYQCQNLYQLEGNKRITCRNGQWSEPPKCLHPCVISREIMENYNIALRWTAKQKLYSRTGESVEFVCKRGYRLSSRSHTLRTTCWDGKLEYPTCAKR

The target of data set [3] is T2, recombinant human factor H, Y402 variant, produced in the PER.C6 cell line.
T2 chain: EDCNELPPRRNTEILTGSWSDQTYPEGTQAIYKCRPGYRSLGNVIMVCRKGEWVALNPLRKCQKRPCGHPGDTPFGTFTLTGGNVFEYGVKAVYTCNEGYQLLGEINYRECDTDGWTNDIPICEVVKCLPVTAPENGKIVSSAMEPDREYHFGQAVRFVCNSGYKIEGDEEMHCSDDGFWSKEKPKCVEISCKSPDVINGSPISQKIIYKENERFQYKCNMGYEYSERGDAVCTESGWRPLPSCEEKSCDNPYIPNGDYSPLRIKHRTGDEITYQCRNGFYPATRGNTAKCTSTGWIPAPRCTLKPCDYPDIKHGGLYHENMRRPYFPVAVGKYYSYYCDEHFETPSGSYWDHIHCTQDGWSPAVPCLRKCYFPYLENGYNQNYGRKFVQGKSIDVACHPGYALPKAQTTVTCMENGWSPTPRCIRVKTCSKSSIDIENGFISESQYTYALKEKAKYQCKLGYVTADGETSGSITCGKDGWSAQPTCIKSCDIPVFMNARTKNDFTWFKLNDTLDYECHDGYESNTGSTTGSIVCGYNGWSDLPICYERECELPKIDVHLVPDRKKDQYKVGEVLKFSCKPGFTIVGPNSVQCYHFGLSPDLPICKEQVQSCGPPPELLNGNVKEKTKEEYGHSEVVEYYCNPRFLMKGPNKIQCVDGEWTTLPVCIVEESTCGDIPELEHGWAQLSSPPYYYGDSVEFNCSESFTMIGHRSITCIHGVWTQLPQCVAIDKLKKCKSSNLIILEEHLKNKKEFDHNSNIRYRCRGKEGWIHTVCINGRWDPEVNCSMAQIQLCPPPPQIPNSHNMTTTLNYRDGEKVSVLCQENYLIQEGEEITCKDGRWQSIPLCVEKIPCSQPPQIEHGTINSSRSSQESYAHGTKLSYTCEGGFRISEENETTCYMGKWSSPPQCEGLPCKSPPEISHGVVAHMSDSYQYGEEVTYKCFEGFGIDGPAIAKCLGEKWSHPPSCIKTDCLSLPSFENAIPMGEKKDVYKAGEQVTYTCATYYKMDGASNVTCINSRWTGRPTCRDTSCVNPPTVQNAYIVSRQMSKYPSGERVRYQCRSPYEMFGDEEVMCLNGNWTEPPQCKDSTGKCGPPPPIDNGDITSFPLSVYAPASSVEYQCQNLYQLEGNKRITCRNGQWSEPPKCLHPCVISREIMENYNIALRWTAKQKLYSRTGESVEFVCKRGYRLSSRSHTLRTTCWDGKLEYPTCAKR

B1: Factor I (protein)
chain: KVTYTSQEDLVEKKCLAKKYTHLSCDKVFCQPWQRCIEGTCVCKLPYQCPKNGTAVCATNRRSFPTYCQQKSLECLHPGTKFLNNGTCTAEGKFSVSLKHGNTDSEGIVEVKLVDQDKTMFICKSSWSMREANVACLDLGFQQGADTQRRFKLSDLSINSTECLHVHCRGLETSLAECTFTKRRTMGYQDFADVVCYTQKADSPMDDFFQCVNGKYISQMKACDGINDCGDQSDELCCKACQGKGFHCKSGVCIPSQYQCNGEVDCITGEDEVGCAGFASVTQEETEILTADMDAERRRIKSLLPKLSCGVKNRMHIRRKRIVGGKRAQLGDLPWQVAIKDASGITCGGIYIGGCWILTAAHCLRASKTHRYQIWTTVVDWIHPDLKRIVIEYVDRIIFHENYNAGTYQNDIALIEMKKDGNKKDCELPRSIPACVPWSPYLFQPNDTCIVSGWGREKDNERVFSLQWGEVKLISNCSKFYGNRFYEKEMECAGTYDGSIDACKGDSGGPLVCMDANNVTYVWGVVSWGENCGKPEFPGVYTKVANYFDWISYHVGRPFISQYNV
With B1, the “cofactor activity of Factor I (liquid-phase cleavage of the C3b α′ chain, SDS-PAGE)” value was “this activity is comparable to that of the human plasma FH” in data set [1]; “the recombinant FHs produced by the PER.C6 and HEK 293F lines have a similar cofactor activity of FI and that this activity is comparable to that of the human plasma FH” in data set [2]; “the recombinant FHs produced by the PER.C6 and HEK 293F lines have a similar cofactor activity of FI and that this activity is comparable to that of the human plasma FH” in data set [3].
